Assay results published in paper PMC3625974 (Structure (London, England : 1993), 2012).

Key:
TorS (Escherichia coli) = TorS (Escherichia coli) (UniProt P39453); settings: cited from earlier work
[1] = target: isolated vpTorSS sensor domain, GSGS-TorS(51-323) (V. parahaemolyticus); assay: AUC
[2] = target: vpTorSS-TorSS dimer: two copies of vpTorSS (51-323) fused via a flexible linker [LN(SG)10A3] (V. parahaemolyticus); assay: AUC
[3] = target: isolated vpTorSS sensor domain, GSGS-TorS(51-323) (V. parahaemolyticus); assay: native gel or EMSA + SEC
TorT (vpTorT) = TorT (vpTorT) (Vibrio parahaemolyticus, UniProt Q87ID2); assay: ITC; type: binding

Chain of TorT (P38683 19-342): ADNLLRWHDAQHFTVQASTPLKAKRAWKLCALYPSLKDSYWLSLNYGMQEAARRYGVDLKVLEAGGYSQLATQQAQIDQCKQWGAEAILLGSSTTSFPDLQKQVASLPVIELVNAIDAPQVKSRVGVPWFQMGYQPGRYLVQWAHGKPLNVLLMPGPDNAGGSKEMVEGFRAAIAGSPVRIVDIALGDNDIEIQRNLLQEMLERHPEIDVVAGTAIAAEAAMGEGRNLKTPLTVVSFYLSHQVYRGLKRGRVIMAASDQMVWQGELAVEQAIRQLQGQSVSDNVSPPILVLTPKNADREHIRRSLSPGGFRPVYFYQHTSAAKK

TorT (from UniProt P38683)
Kd (TorS (Escherichia coli)): 0.01 µM

periplasmic binding protein TorT from V. parahaemolyticus, GSGS-TorT(29-329) (natural protein)
stoichiometry N (TorT per TorSS (2:2)) [1]: 1
Kd [2]: 1.79 µM
stoichiometry N (TorT per TorSS (2:2)) [3]: 1

C[N+](C)(C)[O-] [TMAO, trimethylamine-N-oxide]
Kd (TorT (vpTorT)): 1.36 µM
